Experimental data as given in publication PMC9945446.

Biological target: DNMT1 (human) (UniProt P26358)
Assay: EMSA
Conditions: 50 mM Tris-HCl pH 7.5, 100 mM KCl (or LiCl), 2.5 mM MgCl2, 0.1 mM ZnCl2, 2 mM BME, 0.05% NP40, 5% glycerol, 0.1 mg/mL BSA, 0.1 mg/mL yeast tRNA, 30 C 1 h

Chain of DNMT1 (human) (P26358 whole entry): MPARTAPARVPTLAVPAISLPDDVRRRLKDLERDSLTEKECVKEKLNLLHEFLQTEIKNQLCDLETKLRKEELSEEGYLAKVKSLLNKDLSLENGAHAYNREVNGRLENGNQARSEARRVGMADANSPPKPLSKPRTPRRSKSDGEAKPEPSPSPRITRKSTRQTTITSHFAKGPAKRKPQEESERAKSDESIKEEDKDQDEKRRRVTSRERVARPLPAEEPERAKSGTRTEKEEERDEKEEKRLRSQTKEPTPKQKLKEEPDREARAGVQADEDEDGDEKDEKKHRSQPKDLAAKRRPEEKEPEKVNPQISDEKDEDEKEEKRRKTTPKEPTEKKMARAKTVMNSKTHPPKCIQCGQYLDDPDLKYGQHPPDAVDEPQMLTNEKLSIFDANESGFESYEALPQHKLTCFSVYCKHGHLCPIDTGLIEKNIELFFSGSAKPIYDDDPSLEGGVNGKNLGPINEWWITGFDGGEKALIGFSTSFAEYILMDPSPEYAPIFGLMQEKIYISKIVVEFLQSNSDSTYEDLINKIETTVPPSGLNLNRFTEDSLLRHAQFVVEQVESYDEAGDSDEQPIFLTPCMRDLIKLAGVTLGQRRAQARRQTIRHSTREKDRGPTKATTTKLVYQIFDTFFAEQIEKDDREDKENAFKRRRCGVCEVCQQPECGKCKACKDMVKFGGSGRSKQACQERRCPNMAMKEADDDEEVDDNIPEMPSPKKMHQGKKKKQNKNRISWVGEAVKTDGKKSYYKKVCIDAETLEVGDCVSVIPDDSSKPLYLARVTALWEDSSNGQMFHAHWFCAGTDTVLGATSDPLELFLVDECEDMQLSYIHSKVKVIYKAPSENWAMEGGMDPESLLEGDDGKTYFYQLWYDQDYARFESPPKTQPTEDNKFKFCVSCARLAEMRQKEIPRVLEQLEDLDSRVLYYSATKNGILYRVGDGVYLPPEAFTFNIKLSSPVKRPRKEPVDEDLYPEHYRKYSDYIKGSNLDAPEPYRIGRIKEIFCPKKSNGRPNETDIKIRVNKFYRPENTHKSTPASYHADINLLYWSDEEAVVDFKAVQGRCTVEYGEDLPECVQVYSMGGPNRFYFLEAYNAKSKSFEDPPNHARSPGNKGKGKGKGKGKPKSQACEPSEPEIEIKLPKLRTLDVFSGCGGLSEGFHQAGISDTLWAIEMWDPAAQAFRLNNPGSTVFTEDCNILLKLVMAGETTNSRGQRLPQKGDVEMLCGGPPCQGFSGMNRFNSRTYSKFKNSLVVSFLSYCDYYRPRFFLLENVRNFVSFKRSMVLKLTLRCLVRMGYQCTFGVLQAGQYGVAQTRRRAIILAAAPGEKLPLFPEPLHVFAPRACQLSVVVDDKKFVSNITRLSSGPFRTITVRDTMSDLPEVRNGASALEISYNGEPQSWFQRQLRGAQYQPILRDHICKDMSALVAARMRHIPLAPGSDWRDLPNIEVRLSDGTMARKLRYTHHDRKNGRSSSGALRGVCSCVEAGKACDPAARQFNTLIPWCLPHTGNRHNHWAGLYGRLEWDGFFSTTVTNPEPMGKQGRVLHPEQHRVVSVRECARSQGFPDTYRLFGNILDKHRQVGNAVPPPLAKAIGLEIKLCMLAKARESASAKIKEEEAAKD

Sequence	binding signal (fold weaker than WT 3'UTR)	Kd [nM]
UUCUGCCCUCCCGUCACCCCUGUUUCUGGCACCAGGAAUCCCCAACAUGCACUGACACCACACUUUUAACAUGUCAAUCUGUCCGUUCACACACACAACACACAACACCCACAGCCUUGGCUGACAUGAAGCCACCACACAAGGUUCGCUUAUCAACUAAUGAUUUAGUGAUCAAAUUGUGCAGUACUUUGUGCAUUCUGGAUUUUAAAAGUUUUUUAUUAUGCAUUAUAUCAAAUCUACCACUGUAUGAGUGGAAAUUAAGACUUUAUGUAGUUUUUAUAUGUUGUAAUAUUUCUUCAAAUAAAUCUCUCCUAUAAACCA	3	
UUCCACCCUCCCACCACCCCUACUUCCAGCACCAGGAAUCCCCAACACACACCAACAUCACAUUUUUAACACAUCAAUCUACCCACUCACACACACAACACACAACACUUACGGCCUCAGCCAACACAAAGCCAUCACACAAGACUCGCUUAUCAACUAACAAUUUAACGAUCAAAUCACACAACACUUUACGCAUUCCAGAUUUUAAAAACUUUUUAUUACACAUUAUAUCAAAUCUACCACCAUACAAGCAGAAAUUAAGACUUUACAUAACUUUUAUACAUUACAAUAUUUCUUCAAAUAAAUCUCUCCUAUAAACCA [DNMT1 3'UTR GU mutant (all GU/UG to AC/CA)]	2	
UUCUGCCCUCCCGUCACCCCUGUUUCUGGCACCAGGAAUCCCCAACAUGCACUGAUGUUGUGUUUUUAACAUGUCAAUCUGUCCGUUCACAUGUGUGGUACAUGGUGUUUGUGGCCUUGGCUGACAUGAAGCUGUUGUGUGAGGUUCGCUUAUCAACUAAUGAUUUAGUGAUCAAAUUGUGCAGUACUUUGUGCAUUCUGGAUUUUAAAAGUUUUUUAUUAUGCAUUAUAUCAAAUCUACCACUGUAUGAGUGGAAAUUAAGACUUUAUGUAGUUUUUAUAUGUUGUAAUAUUUCUUCAAAUAAAUCUCUCCUAUAAACCA [DNMT1 3'UTR WT]		69
